Earlier results in paper PMC5801593.

Target: IscS (Escherichia coli) (UniProt P0A6B7)
Assay: fluorescence labeling and calorimetry

IscS (Escherichia coli), sequence (P0A6B7 whole entry): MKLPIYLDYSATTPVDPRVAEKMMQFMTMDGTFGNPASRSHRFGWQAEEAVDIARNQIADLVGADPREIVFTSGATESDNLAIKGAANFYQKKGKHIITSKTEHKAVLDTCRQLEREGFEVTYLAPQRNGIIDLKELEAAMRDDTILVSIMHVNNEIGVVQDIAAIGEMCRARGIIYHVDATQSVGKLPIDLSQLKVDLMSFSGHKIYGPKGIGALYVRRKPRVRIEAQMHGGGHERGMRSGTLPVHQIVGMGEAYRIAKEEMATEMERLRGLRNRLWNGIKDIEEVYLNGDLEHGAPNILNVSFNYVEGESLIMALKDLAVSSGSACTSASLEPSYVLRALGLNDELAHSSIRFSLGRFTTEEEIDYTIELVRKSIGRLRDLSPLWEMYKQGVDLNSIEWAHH
CyaY, sequence (P27838 whole entry): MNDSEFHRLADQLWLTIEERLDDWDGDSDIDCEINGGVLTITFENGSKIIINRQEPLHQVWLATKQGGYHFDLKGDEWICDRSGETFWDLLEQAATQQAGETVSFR

Substance	Kd [µM]
IscX (from UniProt P0C0L9)	12
CyaY (from UniProt P27838)	20
